Results taken from US20200024348A1 (Alector, published 2020).
Where a chain is given by its changes, count along the chain named. Numbers in names are those of the source.

B1: S-60-15.5 [N33D] (antibody, V domains shown)
VH: QVQLQESGPGLVKPSETLSLTCAVSGYSISSGYYWGWIRQPPGKGLEWIGTIYHSGSTYYNPSLKSRVTISVDTSKNQFSLKLSSVTAADTAVYYCARQGSIKQGYYGMDVWGQGTTVTVSS
VL: DIVMTQSPLSLPVTPGEPASISCRSSQSLLRSDGYNYLDWYLQKPGQSPQLLIYLGSNRASGVPDRFSGSGSGTDFTLKISRAEAEDVGVYYCMQQQEAPLTFGGGTKVEIKR
notes: also called completely deamidated version of S-60-15
B2: S-60-15.1 [N33T] LALAPS (antibody, human IgG1, kappa, L234A L235A, V domains shown)
VH: B1 VH
VL: B1 VL with D33T
notes: huIgG1 LALAPS
B3: S-60-3 (antibody, IgG1, V domains shown)
VH: B1 VH
VL: DIVMTQSPLSLPVTPGEPASISCRSSQSLLRSNGYNYLDWYLQKPGQPPQLLIYLGSNRVSGVPDRFSGSGSGTDFTLKISRVEAEDVGVYYCMQQQETPLTFGGGTKVEIK
notes: Tested on the huIgG1 (WT) backbone
B4: S-60-8 (antibody, IgG1, V domains shown)
VH: B1 VH
VL: not shown
notes: as for B3
B5: S-60-7 (antibody, IgG1, V domains shown)
VH: B1 VH
VL: not shown
notes: Tested on the huIgG1 (WT) backbone; also called S-60-5; S-60-6
B6: S-60-4 (antibody, IgG1, V domains shown)
VH: B1 VH
VL: B3 VL with P18S, S28G, P48S, V60A
notes: as for B3
B7: S-60-19 (antibody, IgG1, V domains shown)
VH: B1 VH with R67Q, K82E, K103Q
VL: not shown
notes: as for B3
B8: S-60-11 (antibody, IgG1, V domains shown)
VH: B1 VH with R67Q, K82E, K103Q
VL: not shown
notes: as for B3
B9: S-60-10 (antibody, IgG1, V domains shown)
VH: B1 VH with R67Q, K82E, K103Q
VL: not shown
notes: as for B3
B10: S-60-16 (antibody, IgG1, V domains shown)
VH: B1 VH
VL: not shown
notes: as for B3
B11: S-60-13 (antibody, IgG1, V domains shown)
VH: B1 VH with K65E, K103Q
VL: not shown
notes: as for B3
B12: S-60-14 (antibody, IgG1, V domains shown)
VH: B1 VH with K65E, K103Q
VL: not shown
notes: as for B3
B13: S-60-12 (antibody, IgG1, V domains shown)
VH: B1 VH with R67Q, K82E, K103Q
VL: B3 VL
notes: as for B3
B14: S-60-15 (antibody, IgG1, V domains shown)
VH: B1 VH
VL: not shown
B15: S-60-18 (antibody, IgG1, V domains shown)
VH: B1 VH
VL: B3 VL with E17G, P48S, V60A, F67L
notes: as for B3
B16: S-60-24 (antibody, IgG1, V domains shown)
VH: B1 VH
VL: B3 VL with P18S, S28G, P48S, V60A, T99A
notes: as for B3

Molecular target: T1, histidine-tagged human SORT1 (R&D Systems) (human, UniProt Q99523 78-755)
T1 construct: Bought recombinant protein; also called His-tagged human SORT1; not shown: histidine tag
T1 sequence: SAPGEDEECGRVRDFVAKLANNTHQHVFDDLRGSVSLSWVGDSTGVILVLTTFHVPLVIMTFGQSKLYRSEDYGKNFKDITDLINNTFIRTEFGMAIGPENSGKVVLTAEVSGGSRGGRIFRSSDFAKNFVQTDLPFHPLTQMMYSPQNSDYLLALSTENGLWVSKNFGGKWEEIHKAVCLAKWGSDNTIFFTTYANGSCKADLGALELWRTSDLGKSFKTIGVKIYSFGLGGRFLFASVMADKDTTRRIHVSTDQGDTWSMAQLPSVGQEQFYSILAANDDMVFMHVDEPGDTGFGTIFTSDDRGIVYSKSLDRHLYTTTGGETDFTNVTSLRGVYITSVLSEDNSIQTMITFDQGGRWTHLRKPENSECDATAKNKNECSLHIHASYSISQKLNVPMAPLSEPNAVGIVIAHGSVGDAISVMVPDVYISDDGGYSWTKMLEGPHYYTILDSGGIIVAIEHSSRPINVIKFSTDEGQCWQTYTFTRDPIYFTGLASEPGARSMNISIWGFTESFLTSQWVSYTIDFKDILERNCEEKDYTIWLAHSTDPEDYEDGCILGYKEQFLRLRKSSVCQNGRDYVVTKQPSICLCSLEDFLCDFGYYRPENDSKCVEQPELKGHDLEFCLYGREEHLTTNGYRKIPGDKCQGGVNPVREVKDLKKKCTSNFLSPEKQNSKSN
Experiment: BLI (Octet RED96), antibody captured on anti-human IgG Fc sensor, 20 nM His-tagged human SORT1, 1:1 fit
Experimental: The G1m3 or G1m(f) allotype with L234A/L235A/P331S (“LALAPS” motif) mutations was used as a background (Jefferis R and Lefranc M-P, Mabs, 2009 July-August; 1(4): 332-338). […] Bio-layer interferometry (BLI) data was collected at a rate of 5 Hz at 25° C. on a Pall ForteBio Octet RED96 instrument. Data analysis was performed using ForteBio Data Analysis Software, version 9.0. Standard kinetic buffer (PBS, 0.1 BSA, 0.02 Tween-20, pH 7.2) was used for the assay and for preparing reagents. For all assays, sensor tips were equilibrated in buffer prior to analysis.
Twenty nM histidine-tagged human SORT1 (R&D Systems, Minneapolis, Minn.) was then bound to the captured anti-SORT1 surface (200 s association time, 1200 s dissociation time). […] Full, local fitting using a 1:1 interaction model was applied to extract association and dissociation rate constants (kₐ and kd, respectively) for each N33 mutant. Affinity constants (KD) were calculated from the ratio […]. Different amino acid substitutions were made at N33 and tested for binding to SORT1 in an off-rate screen (under non-stress conditions) as shown in Table 9.

Binder	Kd [nM]
B1	1

Molecular target: T1, histidine-tagged human SORT1 (R&D …)
Experiment: BLI, complete kinetic analysis with multiple concentrations of SORT1

Binder	Kd [nM]
B2	0.26

Molecular target: T2, human Sortilin (SORT1), full-length untagged, expressed on cells (human, UniProt Q99523 78-831)
T2 sequence: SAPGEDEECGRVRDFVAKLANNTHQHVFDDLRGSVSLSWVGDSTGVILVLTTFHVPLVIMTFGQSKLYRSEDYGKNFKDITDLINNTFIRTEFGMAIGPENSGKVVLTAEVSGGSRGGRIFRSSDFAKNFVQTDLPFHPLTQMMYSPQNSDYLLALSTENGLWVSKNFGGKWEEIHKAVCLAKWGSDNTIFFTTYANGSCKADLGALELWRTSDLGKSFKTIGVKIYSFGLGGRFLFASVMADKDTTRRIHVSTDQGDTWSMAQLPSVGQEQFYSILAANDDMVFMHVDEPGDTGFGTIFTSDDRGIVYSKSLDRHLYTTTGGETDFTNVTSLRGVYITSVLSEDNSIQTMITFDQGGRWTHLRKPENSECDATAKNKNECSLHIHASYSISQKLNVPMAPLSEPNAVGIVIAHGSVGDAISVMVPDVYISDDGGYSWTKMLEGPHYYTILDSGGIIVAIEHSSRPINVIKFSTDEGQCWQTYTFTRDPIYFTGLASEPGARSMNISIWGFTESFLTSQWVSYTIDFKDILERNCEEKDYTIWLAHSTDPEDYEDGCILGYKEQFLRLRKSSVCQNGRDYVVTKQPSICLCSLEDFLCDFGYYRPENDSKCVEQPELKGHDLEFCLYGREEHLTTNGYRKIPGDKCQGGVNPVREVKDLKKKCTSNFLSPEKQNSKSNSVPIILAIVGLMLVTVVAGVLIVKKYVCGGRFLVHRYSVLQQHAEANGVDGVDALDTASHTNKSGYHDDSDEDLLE
Experiment: cell-based or functional assay

Binder	% DR at 150 nM antibody (IgG), U251 cells [%]	EC50 (pM): downregulation (DR) of cell surface SORT1, U251 cells, FACS [pM]
B1	3.4	
B2	70.3	104

Molecular target: T2, human Sortilin (SORT1), full-length …
Experiment: cell-based or functional assay
Remark: another data set of the same source

Binder	DR EC50 (M): down-regulation of cell surface SORT1, U251 cells, FACS [M]	DR at 0.6 nM antibody (IgG): percent SORT1 downregulation, U251 cells [%]
B3	2.69e-10	43
B4	5.76e-10	32
B5	4.47e-10	32.6
B6	4.18e-10	39.6

Molecular target: T2, human Sortilin (SORT1), full-length …
Experiment: FACS on HEK293T cells expressing human SORT1, huIgG1
Experimental: (§1) For the binding assay, stable HEK293T cells expressing human SORT1 were harvested by trypsinization, washed in PBS, counted and plated on 96-well u-bottom plates at 1×10⁵ cells/well. The plates were spun at 1,400 rpm for 3 minutes and primary anti-SORT1 or control antibodies were added in FACS buffer (PBS+2 FBS) and incubated on ice for one hour. Cells were subsequently centrifuged as before and washed thrice with FACS buffer. Cells were then incubated with anti-human APC conjugated secondary antibody (BD Biosciences) in FACS buffer for 30 minutes on ice. Cells were again washed three times with FACS buffer and analyzed on a BD FACS Canto or an Intellicyt Flow Cytometer. Binding was measured as median fluorescent intensity (MFI) in the […] channel of the GFP positive cell population.
(§2) All antibodies were tested on the huIgG1 backbone.

Binder	Kd [nM]
B7	0.8
B8	0.65
B9	0.65
B10	0.78
B11	0.75
B12	1.05
B13	0.89
B14	0.56
B4	0.468
B5	0.787
B6	0.634
B15	1.63

Molecular target: T2, human Sortilin (SORT1), full-length …
Experiment: cell-based or functional assay
Remark: another data set of the same source

Binder	DR at 0.63 nM antibody (IgG): percent SORT1 downregulation, U251 cells [%]
B8	88.8
B9	85.4
B11	82.3
B12	80.5
B13	87.4
B16	81.5

Molecular target: T2, human Sortilin (SORT1), full-length …
Experiment: FACS on HEK293T cells expressing human SORT1, huIgG1; average of two experiments
Experimental: as §1, §2

Binder	Kd [nM]
B3	0.856
B16	0.755

Molecular target: T2, human Sortilin (SORT1), full-length …
Experiment: cell-based or functional assay
Remark: another data set of the same source

Binder	DR at 1.25 nM antibody (IgG): percent SORT1 downregulation, U251 cells [%]
B3	61.5
B7	55.5
B10	70.1
B14	60.9
B16	65.2
B15	51.3
